Measurements as given in publication PMC2873776 (Biochemistry, 2010).

Target: the molecule itself
Assay: pulsed dipolar ESR spectroscopy

B1: Tm14C N125C homodimer, spin-labeled (domain or fragment)
chain: RRIEEVKERFVNLNRLFQELVGDFQAKSDQLVSVIQDMEKISENIMEELKKSGTNVDQIVERVKEASSQIGETLENIRSIEKLIQCIMRIARETNILALNATIEAARAGEAGKGFMIVANEVQNLSNETNEVTKQIVEKAREILESSQRSLENLEFMANLFETVGKTLQNMVRF
modifications: MTSSL nitroxide spin label on Cys125
With B1 the “stoichiometry N” value was 2.
